Source: patent publication US9540654B2, “Synthetic brassica-derived chloroplast transit peptides” (Dow AgroSciences LLC, priority 2012, dated 2017)

B1: TraP13: chimeric chloroplast transit peptide SEQ ID NO:8, N-terminus from Arabidopsis thaliana, C-terminus from Brassica napus EPSPS (protein)
chain: MAQVSRICNGVQNPSLISNLSKSSQRKSPLSVSLKTQQPRASSWGLKKSGTMLNGSVIRPVKVTASVS
modifications: TraP13 chloroplast transit peptide
B2: TraP5: chloroplast transit peptide (SEQ ID NO:29) linked with dgt-28 (protein)
chain: MQLLNQRQALRLGRSSASKNQQVAPLASRPASSLSVSASSVAPAPACSAPAGAGRRAVVVRA
modifications: Chloroplast Transit Peptide
B3: TraP23: chloroplast transit peptide (SEQ ID NO:41) linked with dgt-28 or dgt-31 (protein)
chain: MAQINKSANGVRNASLISNFSNTRQAKSPFSLSCGTRLKNSSRGLKKVAVRLIGSRVKVSAS
modifications: Chloroplast Transit Peptide
B4: TraP8: chloroplast transit peptide (SEQ ID NO:30) linked with dgt-28 (protein)
chain: MAQSSRICHGVQNPCVIISNLSKSNQNKSPFSVSLKTHQQQRRAYQISSWGLKKSNNGSVIRPVKA
modifications: Chloroplast Transit Peptide

Assays:
Zea mays B104 = experiment: Post-emergence glyphosate tolerance of dgt-28 T0 corn (greenhouse); type: in vivo; details: for protection to glyphosate: T0 corn, dgt-28 linked to the transit peptide
Description: Zea mays dgt-28 transformation events (T0) were allowed to acclimate in the greenhouse and were grown until plants had transitioned from tissue culture to greenhouse growing conditions (i.e., 2-4 new, normal looking leaves had emerged from the whorl). Plants were grown at 27° C. under 16 hour light:8 hour dark conditions in the greenhouse. The plants were then treated with commercial formulations of DURANGO DMA™ (containing the herbicide glyphosate) with the addition of 2% w/v ammonium-sulfate. Herbicide applications were made with a track sprayer at a spray volume of 187 L/ha, 50-cm spray height. T0 plants were sprayed with a range of glyphosate from 280-4480 g ae/ha glyphosate, which is capable of significant injury to untransformed corn lines. A lethal dose is defined as the rate that causes >95% injury to the B104 inbred.
T0 events of dgt-28 linked with TraP4, TraP5, TraP8 and TraP23 were generated by Agrobacterium transformation and were allowed to acclimate under controlled growth chamber conditions until 2-4 new, normal looking leaves had emerged from the whorl. Plants were assigned individual identification numbers and sampled for copy number analyses of both dgt-28 and aad-1. Based on copy number analyses, plants were selected for protein expression analyses. Plants were transplanted into larger pots with new growing media and grown at 27° C. under 16 hour light:8 hour dark conditions in the greenhouse. Remaining plants that were not sampled for protein expression were then treated with commercial formulations of DURANGO DMA™ (glyphosate) with the addition of 2% w/v ammonium-sulfate. Treatments were distributed so that each grouping of plants contained T0 events of varying copy number. Herbicide applications were made with a track sprayer at a spray volume of 187 L/ha, 50-cm spray height. T0 plants were sprayed with a range of glyphosate from 280-4480 g ae/ha glyphosate capable of significant injury to untransformed corn lines. A lethal dose is defined as the rate that causes >95% injury to the B104 inbred. B104 was the genetic background of the transformants.

[1] = tested on: chloroplasts of the tobacco leaf tissue; experiment: Tobacco transient assay, confocal microscopy of TraP-YFP; type: cell-based, Nicotiana benthamiana; details: Agrobacterium-infiltrated tobacco leaves
From the text: The Trap12 and TraP13 chimeric chloroplast transit peptide sequences were initially tested via a transient in planta assay. Polynucleotide sequences which encode the Trap12 (SEQ ID NO:5) and TraP13 (SEQ ID NO:7) chimeric chloroplast transit peptide sequences were synthesized. A linker sequence (SEQ ID NO:10) was incorporated between the TraP sequence and the yfp coding sequence. The resulting constructs contained two plant transcription units (PTU). The first PTU was comprised of the Arabidopsis thaliana Ubiquitin 10 promoter (AtUbi10 promoter; Callis, et al., (1990) J. Biol. Chem., 265: 12486-12493), Trap yellow fluorescent protein fusion gene (TraP-YFP; US Patent App. 2007/0298412), and Agrobacterium tumefaciens ORF 23 3′ untranslated region (AtuORF23 3′UTR; U.S. Pat. No. 5,428,147). […]
Agrobacterium-infiltrated tobacco leaves were severed from the plant, and placed into a petri-dish with water to prevent dehydration. The infiltrated tobacco leaves were observed under blue light excitation with long-pass filter glasses held in place using a Dark Reader Hand Lamp™ (Clare Chemical Research Co.; Dolores, Colo.) to identify undamaged areas of the leaf that were successfully expressing the YFP reporter proteins. […]

[2] = tested on: tobacco (cv. Petit Havana); experiment: Postemergence glyphosate tolerance of dgt-28 tobacco (T1, T2); type: in vivo; details: T1 tobacco, 2240 g ae/ha glyphosate, 14 DAT
From the text: T1 resistant plants from each event used in the progeny testing were given unique identifiers and sampled for zygosity analyses of the dgt-28 gene. Zygosity data were used to assign 2 hemizygous and 2 homozygous replicates to each rate of glyphosate applied allowing for a total of 4 replicates per treatment. These plants were compared against wildtype Petite havana tobacco. All plants were sprayed with a track sprayer set at 187 L/ha. The plants were sprayed from a range of 560-4480 g ae/ha DURANGO DMA™. All applications were formulated in water with the addition of 2% w/v ammonium sulfate (AMS). Plants were evaluated at 7 and 14 days after treatment. Plants were assigned an injury rating with respect to overall visual stunting, chlorosis, and necrosis. The T1 generation is segregating, so some variable response is expected due to difference in zygosity.
Rates of DURANGO DMA™ ranging from 420-3360 g ae/ha glyphosate were applied to 2-3 leaf tobacco as previously described.

| Molecule | glyphosate concentration controlling non-transformed plants (Zea mays B104; non-transformed corn plants) | localization of YFP fluorescence signal (microscopy imaging) [1] | protection to glyphosate (Zea mays B104) | % Injury Ave [2] |
| --- | --- | --- | --- | --- |
| O=C(O)CNCP(=O)(O)O [glyphosate, reference compound] | ≥ 280 g ae/ha |  |  |  |
| B1 |  | accumulated within the chloroplasts |  |  |
| B2 |  |  | robust protection |  |
| B3 |  |  | robust protection | 9.5% |
| B4 |  |  | robust protection | 9.3% |
